Source: patent publication US20220395553A1 (COHBAR, published 2022)
Square brackets hold non-standard residues; d marks the D form. Ends that are not written are not given here.

What follows are binders tested against T1, CXCR4 on cultured U937 and Jurkat cells (human, UniProt P61073 1-352) (assay: cell-based or functional assay).
T1 sequence (P61073 whole entry): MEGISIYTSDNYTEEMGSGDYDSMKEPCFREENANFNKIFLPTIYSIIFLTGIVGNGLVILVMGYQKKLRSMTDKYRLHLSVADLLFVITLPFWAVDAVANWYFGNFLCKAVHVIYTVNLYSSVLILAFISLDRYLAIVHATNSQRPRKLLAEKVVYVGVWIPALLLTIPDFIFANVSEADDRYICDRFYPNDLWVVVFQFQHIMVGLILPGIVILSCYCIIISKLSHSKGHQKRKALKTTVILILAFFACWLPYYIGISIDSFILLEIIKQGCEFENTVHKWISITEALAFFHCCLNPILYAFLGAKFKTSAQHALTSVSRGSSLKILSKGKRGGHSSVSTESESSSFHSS

Binder	Percent Inhibition of CXCL12 Mediated Migration (1.1 µM Test Article; Jurkat cells)
LERYHHS[dA]RSSLRPYT [SEQ ID NO: 5]	46%
LRRYHHSVRSSLRPYTK-NH2 [SEQ ID NO: 16]	21%
LERYHHSVRSSLRPYTK-NH2 [SEQ ID NO: 56]	83%
LERYHHSVRSSLRPYT [SEQ ID NO: 18]	66%
MLRRYHHSVRSSLRPYTK [SEQ ID NO: 2]	4%
LRRYHHSVRSSLRPYTK [SEQ ID NO: 3]	66%
LERYHHSVRSSLRPYTK [SEQ ID NO: 4]	77%
LDRYHHSVRSSLRPYTK [SEQ ID NO: 7]	52%
LDRYHHS[dA]RSSLRPYTK [SEQ ID NO: 8]	94%
LRRYHHSVRTSLRPYTK [SEQ ID NO: 70]	21%
LERYHHTVRSSLRPYTK [SEQ ID NO: 39]	77%
LERYHHSVRTSLRPYTK [SEQ ID NO: 73]	82%
LERYHHSVRSTLRPYTK [SEQ ID NO: 74]	61%
LERYHHSVRSSLRPYSK [SEQ ID NO: 75]	81%
LRRYHHSVRSSLRGYTK [SEQ ID NO: 79]	36%

Target: T1, CXCR4 on cultured U937 and Jurkat cells
Assay: cell-based or functional assay
Remark: another data set of the same source

Binder	Percent Inhibition of CXCR4/CXCL12 Induced p-MEK (100 nM Test Article)	Percent Inhibition of CXCR4/CXCL12 Induced p-MEK (1 µM Test Article)
LERYHHS[dA]RSSLRPYT [SEQ ID NO: 5]	-20%	24%
LRRYHHSVRSSLRPYTK-NH2 [SEQ ID NO: 16]	74%	100%
LERYHHSVRSSLRPYTK-NH2 [SEQ ID NO: 56]	69%	98%
LERYHHSVRSSLRPYT [SEQ ID NO: 18]	45%	78%
MLRRYHHSVRSSLRPYTK [SEQ ID NO: 2]	-1%	28%
LRRYHHSVRSSLRPYTK [SEQ ID NO: 3]	29%	91%
LERYHHSVRSSLRPYTK [SEQ ID NO: 4]	40%	76%
LDRYHHSVRSSLRPYTK [SEQ ID NO: 7]	60%	96%
LDRYHHS[dA]RSSLRPYTK [SEQ ID NO: 8]	32%	88%
LRRYHHSVRTSLRPYTK [SEQ ID NO: 70]	57%	93%
LERYHHTVRSSLRPYTK [SEQ ID NO: 39]	38%	95%
LERYHHSVRTSLRPYTK [SEQ ID NO: 73]	47%	96%
LERYHHSVRSTLRPYTK [SEQ ID NO: 74]	48%	93%
LERYHHSVRSSLRPYSK [SEQ ID NO: 75]	60%	100%
LRRYHHSVRSSLRGYTK [SEQ ID NO: 79]	46%	100%

What follows are binders tested against T2, SNAP tagged-CXC4 receptor labeled with terbium (Tag-lite CXCR4 cells, HEK293) (UniProt P61073 1-352, SNAP tag labeled with terbium fluorescent dye) (assay: HTRF competition on Tag-lite CXCR4 HEK293 cells; competitor labelled CXCL12).
T2 construct: whole, on cells; Bought frozen cells (PerkinElmer-CisBio), HEK293 transiently expressing the receptor; also called terbium labeled CXCR receptor
Description: (§1) Peptides were initially prepared as 1 mM stock in H₂O and tested at a final concentration of 400 nM. Following the manufacture's protocol, a frozen aliquot of Tag-lite CXCR4 cells was thawed and immediately seeded onto 384-well plates in TLB. Immediately following the addition of cells, 400 nM peptide (final concentration) in TLB was added to the appropriate well. […] The plates were covered in aluminum foil and left at room temperature for 3 hours. Following the 3 hour incubation period, the plates were removed from the incubator and fluorescence measured using a Cytation 1 plate reader using a HTRF filter cube ([…]; BioTek; Winooski, Vt.).

T2 sequence (P61073 whole entry): as above

Binder	Percent Inhibition of CXCR4/CXCL12 Binding (400 nM peptide)
LERYHHSVRSSLRPYT [SEQ ID NO: 18]	57%
LERYHHSVRSSLRPYTK [SEQ ID NO: 4]	88%
LDRYHHSVRSSLRPYTK [SEQ ID NO: 7]	89%
LDRYHHS[dA]RSSLRPYTK [SEQ ID NO: 8]	86%
LRRYHHSVRTSLRPYTK [SEQ ID NO: 70]	11%
LERYHHTVRSSLRPYTK [SEQ ID NO: 39]	87%
LERYHHSVRTSLRPYTK [SEQ ID NO: 73]	87%
LERYHHSVRSTLRPYTK [SEQ ID NO: 74]	88%
LERYHHSVRSSLRPYSK [SEQ ID NO: 75]	81%
LRRYHHSVRSSLRGYTK [SEQ ID NO: 79]	12%

What follows are binders tested against T3, ProLink tagged human CXCR4 (C2C12 CXCR4 β-Arrestin cell line) (human, UniProt P61073 1-352) (assay: cell-based or functional assay).
T3 sequence (P61073 whole entry): as above

Binder	IC50 for Inhibition of CXCR4 (β-Arrestin recruitment)
LRRYHHSVRSSLRPYTK [SEQ ID NO: 3]	0.51 nM
LERYHHSVRSSLRPYTK [SEQ ID NO: 4]	2.28 nM

Each binder was assayed against T4, ProLink tagged human CXCR4 (C2C12 CXCR4 β-Arrestin cell line) (human, UniProt P61073 1-352) (assay: cell-based or functional assay).
T4 sequence (P61073 whole entry): as above

Binder	IC50 for Inhibition of CXCR4 (β-Arrestin recruitment)
LERYHHS[dA]RSSLRPYT [SEQ ID NO: 5]	121 nM

Target: T3, ProLink tagged human CXCR4 (C2C12 CXCR4 …)
Assay: cell-based or functional assay
Remark: another data set of the same source

Binder	IC50 for Inhibition of CXCR4 Activation (β-Arrestin recruitment)
LRRYHHSVRSSLRPYTK-NH2 [SEQ ID NO: 16]	8 nM
LERYHHSVRSSLRPYTK-NH2 [SEQ ID NO: 56]	11 nM
LRRYHHSVRSSLRPYTK [SEQ ID NO: 3]	5 nM
LERYHHSVRSSLRPYTK [SEQ ID NO: 4]	4 nM

Target: T4, ProLink tagged human CXCR4 (C2C12 CXCR4 …)
Assay: cell-based or functional assay
Remark: another data set of the same source

Binder	IC50 for Inhibition of CXCR4 Activation (β-Arrestin recruitment)
LERYHHS[dA]RSSLRPYT [SEQ ID NO: 5]	244 nM
LERYHHSVRSSLRPYT [SEQ ID NO: 18]	24 nM
MLRRYHHSVRSSLRPYTK [SEQ ID NO: 2]	11 nM
LDRYHHSVRSSLRPYTK [SEQ ID NO: 7]	1.5 nM
LDRYHHS[dA]RSSLRPYTK [SEQ ID NO: 8]	3 nM
LRRYHHSVRTSLRPYTK [SEQ ID NO: 70]	2 nM
LERYHHTVRSSLRPYTK [SEQ ID NO: 39]	3 nM
LERYHHSVRTSLRPYTK [SEQ ID NO: 73]	4 nM
LERYHHSVRSTLRPYTK [SEQ ID NO: 74]	5 nM
LERYHHSVRSSLRPYSK [SEQ ID NO: 75]	4 nM
LRRYHHSVRSSLRGYTK [SEQ ID NO: 79]	3 nM

Target: T2, SNAP tagged-CXC4 receptor labeled with …
Assay: HTRF competition on Tag-lite CXCR4 HEK293 cells; competitor labelled CXCL12
Remark: another data set of the same source
Description: as §1, with “H₂O. […]” for “H₂O and tested at a final concentration of 400 nM.”, “TLB.” for “TLB. Immediately following the addition of cells, 400 nM peptide (final concentration) in TLB was added to the appropriate well.”

Binder	IC50
LERYHHS[dA]RSSLRPYT [SEQ ID NO: 5]	33 nM
LERYHHSVRSSLRPYT [SEQ ID NO: 18]	18 nM
MLRRYHHSVRSSLRPYTK [SEQ ID NO: 2]	375 nM
LRRYHHSVRSSLRPYTK [SEQ ID NO: 3]	497 nM
LERYHHSVRSSLRPYTK [SEQ ID NO: 4]	6 nM
LDRYHHSVRSSLRPYTK [SEQ ID NO: 7]	5 nM
LDRYHHS[dA]RSSLRPYTK [SEQ ID NO: 8]	9 nM
LRRYHHSVRTSLRPYTK [SEQ ID NO: 70]	336 nM
LERYHHTVRSSLRPYTK [SEQ ID NO: 39]	8 nM
LERYHHSVRTSLRPYTK [SEQ ID NO: 73]	10 nM
LERYHHSVRSTLRPYTK [SEQ ID NO: 74]	6 nM
LERYHHSVRSSLRPYSK [SEQ ID NO: 75]	11 nM
LRRYHHSVRSSLRGYTK [SEQ ID NO: 79]	670 nM

Target: T1, CXCR4 on cultured U937 and Jurkat cells
Assay: cell-based or functional assay
Remark: another data set of the same source

Binder	Percent Inhibition of CXCL12 Mediated Migration (U937 cells)
LERYHHS[dA]RSSLRPYT [SEQ ID NO: 5]	86%
MLRRYHHSVRSSLRPYTK [SEQ ID NO: 2]	58%
LRRYHHSVRSSLRPYTK [SEQ ID NO: 3]	101%
LERYHHSVRSSLRPYTK [SEQ ID NO: 4]	98%
